# From US20170313756A1 (Sanofi, published 2017)
# [ ]: non-standard residue; d: D form. The star is where a group is joined. Butanoyl(4-Ph) = O=C(CCCc1ccccc1)*; Stearyl = stearyl group
# B1: (Ph(CH2)3CO) HfRW (819) (peptide)
# peptide: {Butanoyl(4-Ph)}-H[dF]RW-NH2
# B2: (Stearyl) HfRW (820) (peptide)
# peptide: Stearyl-H[dF]RW-NH2
# B3: peptide 892 (peptide)
# peptide: SYSMEHXRWGKPV
# modifications: N-terminal acetyl (Ac); C-terminal amide; L-cyclohexylalanine (L-Cha) at 7
# notes: also called analog 892
# B4: peptide 878 (peptide)
# peptide: VPKGWRFHEXSYS
# modifications: N-terminal acetyl (Ac); C-terminal amide; D-buthionine at 10; D-isomers at all residues except Gly 4
# B5: peptide 894 (peptide)
# peptide: VPKGWRFHEMSYS
# modifications: N-terminal acetyl (Ac); C-terminal amide; L-Arg at 6; D-isomers at all other residues except Gly 4
# B6: retro-inverso α-MSH (peptide)
# peptide: VPKGWRFHEMSYS
# modifications: N-terminal acetyl (Ac); C-terminal amide; D-isomers at all residues except Gly 4
# B7: peptide 886 (peptide)
# peptide: Ac-[dV][dP][dK]G[dW][dR][dF][dH][dS][dI][dI][dS][dS]-NH2
# SMILES: CC[C@@H](C)[C@@H](NC(=O)[C@@H](CO)NC(=O)[C@@H](Cc1c[nH]cn1)NC(=O)[C@@H](Cc1ccccc1)NC(=O)[C@@H](CCCNC(=N)N)NC(=O)[C@@H](Cc1c[nH]c2ccccc12)NC(=O)CNC(=O)[C@@H](CCCCN)NC(=O)[C@H]1CCCN1C(=O)[C@H](NC(C)=O)C(C)C)C(=O)N[C@@H](C(=O)N[C@H](CO)C(=O)N[C@H](CO)C(N)=O)[C@H](C)CC
# B8: peptide 895 (peptide)
# peptide: VPKGWRFHEMSYS
# modifications: N-terminal acetyl (Ac); C-terminal amide; L-His at 8; D-isomers at all other residues except Gly 4
# B9: peptide 893 (peptide)
# peptide: VPKGWRFHEMSYS
# modifications: N-terminal acetyl (Ac); C-terminal amide; L-Trp at 5; D-isomers at all other residues except Gly 4
# B10: peptide 869 (peptide)
# peptide: VPKGWRXHEMSYS
# modifications: N-terminal acetyl (Ac); C-terminal amide; D-cyclohexylalanine (D-Cha) at 7; D-isomers at all residues except Gly 4
# B11: peptide 890 (peptide)
# peptide: VPKGWRXHEXSYS
# modifications: N-terminal acetyl (Ac); C-terminal amide; D-Cha at 7; D-buthionine at 10; D-isomers at all residues except Gly 4
# B12: peptide 872 (peptide)
# peptide: VPKGWRFREMSYS
# modifications: N-terminal acetyl (Ac); C-terminal amide; D-isomers at all residues except Gly 4
# B13: peptide 880 (peptide)
# peptide: Ac-[dV][dP][dK]G[dW][dR]F[dH][dS][dI][dI][dS][dS]-NH2
# SMILES: CC[C@@H](C)[C@@H](NC(=O)[C@@H](CO)NC(=O)[C@@H](Cc1c[nH]cn1)NC(=O)[C@H](Cc1ccccc1)NC(=O)[C@@H](CCCNC(=N)N)NC(=O)[C@@H](Cc1c[nH]c2ccccc12)NC(=O)CNC(=O)[C@@H](CCCCN)NC(=O)[C@H]1CCCN1C(=O)[C@H](NC(C)=O)C(C)C)C(=O)N[C@@H](C(=O)N[C@H](CO)C(=O)N[C@H](CO)C(N)=O)[C@H](C)CC
# Target: T1, melanocortin 1 receptor (MC1R) (UniProt Q01726 1-317, limits assumed)
# T1 construct: whole, on cells; Used as membrane preparations, not whole cells; also called MCR-1; MCR1
# T1 sequence (Q01726 whole entry): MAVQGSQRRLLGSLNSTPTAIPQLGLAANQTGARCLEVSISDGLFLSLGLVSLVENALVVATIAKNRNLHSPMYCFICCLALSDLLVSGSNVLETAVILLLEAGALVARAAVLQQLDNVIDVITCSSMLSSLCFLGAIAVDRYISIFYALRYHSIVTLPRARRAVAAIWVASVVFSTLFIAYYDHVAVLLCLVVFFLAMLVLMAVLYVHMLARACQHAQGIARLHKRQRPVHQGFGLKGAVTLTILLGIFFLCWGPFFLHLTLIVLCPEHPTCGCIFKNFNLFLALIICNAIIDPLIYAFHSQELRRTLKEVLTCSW
# Experiment: 125I-NDP-MSH competition, HEK293 membranes
# From the text: (§1) The mixtures were filtered through 96-well GFC filters (Millipore, Billerica, Mass.), washed 3 times with binding buffer without BSA, dried and counted.
row,Ki [nM],Binder
1,0.07,B1
2,1.3,B2
3,0.51,B3

# Target: T2, melanocortin 5 receptor (MC5R) (UniProt P33032 1-325, limits assumed)
# T2 construct: whole, on cells; Membrane preparations; also called MCR-5
# T2 sequence (P33032 whole entry): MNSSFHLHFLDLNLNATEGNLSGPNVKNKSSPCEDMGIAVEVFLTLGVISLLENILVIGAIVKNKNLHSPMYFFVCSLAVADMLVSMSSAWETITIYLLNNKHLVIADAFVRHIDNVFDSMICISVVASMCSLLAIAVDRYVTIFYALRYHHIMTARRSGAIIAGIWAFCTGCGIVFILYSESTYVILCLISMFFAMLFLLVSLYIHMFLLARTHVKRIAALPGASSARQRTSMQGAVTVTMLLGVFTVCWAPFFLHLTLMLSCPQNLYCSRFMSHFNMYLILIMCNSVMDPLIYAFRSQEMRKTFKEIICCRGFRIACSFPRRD
# Experiment: 125I-NDP-MSH competition, HEK293 membranes
# From the text: as §1
row,Ki [nM],Binder
1,~3000,B1
2,860,B2

# Target: T3, melanocortin 3 receptor (MC3R) (UniProt P41968 1-323, limits assumed)
# T3 construct: whole, on cells; Membrane preparations; also called MCR-3
# T3 sequence (P41968 whole entry): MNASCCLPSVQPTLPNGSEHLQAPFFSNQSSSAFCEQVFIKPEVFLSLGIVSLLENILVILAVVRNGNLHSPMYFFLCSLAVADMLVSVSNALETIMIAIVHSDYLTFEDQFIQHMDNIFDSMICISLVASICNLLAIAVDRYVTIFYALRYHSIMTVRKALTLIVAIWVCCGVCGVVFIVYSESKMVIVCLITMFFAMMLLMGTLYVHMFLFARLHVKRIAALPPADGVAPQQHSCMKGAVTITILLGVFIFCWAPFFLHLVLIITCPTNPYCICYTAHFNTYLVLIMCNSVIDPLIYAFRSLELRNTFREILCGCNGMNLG
# Experiment: 125I-NDP-MSH competition, HEK293 membranes
# From the text: as §1
row,Ki [nM],Binder
1,277,B1
2,1370,B2

# Target: mouse MC1R (on murine B16-F1 melanoma cells) (mouse, UniProt Q01727 1-315)
# Sequence (Q01727 whole entry): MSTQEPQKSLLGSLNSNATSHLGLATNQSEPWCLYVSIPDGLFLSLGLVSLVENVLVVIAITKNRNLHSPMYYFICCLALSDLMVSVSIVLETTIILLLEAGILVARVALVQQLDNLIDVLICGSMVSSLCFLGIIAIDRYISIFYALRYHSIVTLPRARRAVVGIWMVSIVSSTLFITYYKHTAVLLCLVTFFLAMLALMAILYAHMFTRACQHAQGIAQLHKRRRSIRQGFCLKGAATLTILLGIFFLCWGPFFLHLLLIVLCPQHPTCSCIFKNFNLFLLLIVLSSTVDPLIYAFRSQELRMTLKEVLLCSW
# Experiment: cell-based or functional assay
row,"EC50, cAMP in B16-F1 cells [nM]",Binder
1,130,B4
2,212000,B5
3,9700,B6
4,2,B7
5,300,B8
6,270,B9
7,14,B10
8,3600,B11
9,2000,B12
10,21,B3
11,23,B13
